# According to article PMC3182529:
# Molecular target: 14-3-3ζ (UniProt P63104)
# Assay: fluorescence polarisation
# Chain of 14-3-3ζ (P63104 whole entry): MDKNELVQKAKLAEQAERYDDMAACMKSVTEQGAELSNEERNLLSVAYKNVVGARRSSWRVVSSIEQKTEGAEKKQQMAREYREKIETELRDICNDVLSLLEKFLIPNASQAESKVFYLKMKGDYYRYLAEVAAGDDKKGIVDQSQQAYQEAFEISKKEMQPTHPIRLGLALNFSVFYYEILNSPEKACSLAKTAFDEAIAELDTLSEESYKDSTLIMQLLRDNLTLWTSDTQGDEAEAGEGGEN
row,Substance,Kd
1,H3K27acS28ph (25–38) (from UniProt P68431 26-39) (peptide),34.9 µM
2,H3S28ph (25–38) (from UniProt P68431 26-39) (peptide),18.7 µM
3,H3S28phP30A (25–38) (from UniProt P68431 26-39) (peptide),162 µM
